Reference: ChEMBL document CHEMBL1240325, “Non-heme dioxygenases: cellular sensors and regulators jelly rolled into one?” (Nat Chem Biol, 2007)

Experiments:
[1] = substrate: O=O; assay: (§1) Activity of HIF prolyl hydroxylase-3
[2] = substrate: O=C(O)CCC(=O)C(=O)O; assay: as §1
[3] = substrate: O=C1O[C@H]([C@@H](O)CO)C(O)=C1O; assay: as §1
[4] = substrate: O=O; assay: (§2) Activity of collagen prolyl 4 hydroxylase-1
[5] = substrate: O=C(O)CCC(=O)C(=O)O; assay: as §2
[6] = substrate: O=C1O[C@H]([C@@H](O)CO)C(O)=C1O; assay: as §2
[7] = substrate: O=O; assay: (§3) Activity of HIF prolyl hydroxylase-2
[8] = substrate: O=C(O)CCC(=O)C(=O)O; assay: as §3
[9] = substrate: O=C1O[C@H]([C@@H](O)CO)C(O)=C1O; assay: as §3
[10] = substrate: O=O; assay: (§4) Activity of FIH-1
[11] = substrate: O=C(O)CCC(=O)C(=O)O; assay: as §4
[12] = substrate: O=C1O[C@H]([C@@H](O)CO)C(O)=C1O; assay: as §4

B1: Prolyl hydroxylase EGLN3 (Homo sapiens), Q9H6Z9 (protein)
chain: MPLGHIMRLDLEKIALEYIVPCLHEVGFCYLDNFLGEVVGDCVLERVKQLHCTGALRDGQLAGPRAGVSKRHLRGDQITWIGGNEEGCEAISFLLSLIDRLVLYCGSRLGKYYVKERSKAMVACYPGNGTGYVRHVDNPNGDGRCITCIYYLNKNWDAKLHGGILRIFPEGKSFIADVEPIFDRLLFFWSDRRNPHEVQPSYATRYAMTVWYFDAEERAEAKKKFRNLTRKTESALTED
- Km [1]: 230 µM
- Km [2]: 55 µM
- Km [3]: 140 µM

B2: Prolyl 4-hydroxylase subunit alpha-1 (Homo sapiens), P13674 (protein)
chain: MIWYILIIGILLPQSLAHPGFFTSIGQMTDLIHTEKDLVTSLKDYIKAEEDKLEQIKKWAEKLDRLTSTATKDPEGFVGHPVNAFKLMKRLNTEWSELENLVLKDMSDGFISNLTIQRQYFPNDEDQVGAAKALLRLQDTYNLDTDTISKGNLPGVKHKSFLTAEDCFELGKVAYTEADYYHTELWMEQALRQLDEGEISTIDKVSVLDYLSYAVYQQGDLDKALLLTKKLLELDPEHQRANGNLKYFEYIMAKEKDVNKSASDDQSDQKTTPKKKGVAVDYLPERQKYEMLCRGEGIKMTPRRQKKLFCRYHDGNRNPKFILAPAKQEDEWDKPRIIRFHDIISDAEIEIVKDLAKPRLRRATISNPITGDLETVHYRISKSAWLSGYENPVVSRINMRIQDLTGLDVSTAEELQVANYGVGGQYEPHFDFARKDEPDAFKELGTGNRIATWLFYMSDVSAGGATVFPEVGASVWPKKGTAVFWYNLFASGEGDYSTRHAACPVLVGNKWVSNKWLHERGQEFRRPCTLSELE
- Km [4]: 40 µM
- Km [5]: 20 µM
- Km [6]: 300 µM

B3: Egl nine homolog 1 (Homo sapiens), Q9GZT9 (protein)
chain: MANDSGGPGGPSPSERDRQYCELCGKMENLLRCSRCRSSFYCCKEHQRQDWKKHKLVCQGSEGALGHGVGPHQHSGPAPPAAVPPPRAGAREPRKAAARRDNASGDAAKGKVKAKPPADPAAAASPCRAAAGGQGSAVAAEAEPGKEEPPARSSLFQEKANLYPPSNTPGDALSPGGGLRPNGQTKPLPALKLALEYIVPCMNKHGICVVDDFLGKETGQQIGDEVRALHDTGKFTDGQLVSQKSDSSKDIRGDKITWIEGKEPGCETIGLLMSSMDDLIRHCNGKLGSYKINGRTKAMVACYPGNGTGYVRHVDNPNGDGRCVTCIYYLNKDWDAKVSGGILRIFPEGKAQFADIEPKFDRLLFFWSDRRNPHEVQPAYATRYAITVWYFDADERARAKVKYLTGEKGVRVELNKPSDSVGKDVF
- Km [7]: 100 µM
- Km [8]: 2 µM
- Km [9]: 180 µM

B4: Hypoxia-inducible factor 1-alpha inhibitor (Homo sapiens), Q9NWT6 (protein)
chain: MAATAAEAVASGSGEPREEAGALGPAWDESQLRSYSFPTRPIPRLSQSDPRAEELIENEEPVVLTDTNLVYPALKWDLEYLQENIGNGDFSVYSASTHKFLYYDEKKMANFQNFKPRSNREEMKFHEFVEKLQDIQQRGGEERLYLQQTLNDTVGRKIVMDFLGFNWNWINKQQGKRGWGQLTSNLLLIGMEGNVTPAHYDEQQNFFAQIKGYKRCILFPPDQFECLYPYPVHHPCDRQSQVDFDNPDYERFPNFQNVVGYETVVGPGDVLYIPMYWWHHIESLLNGGITITVNFWYKGAPTPKRIEYPLKAHQKVAIMRNIEKMLGEALGNPQEVGPLLNTMIKGRYN
- Km [10]: 90 µM
- Km [11]: 25 µM
- Km [12]: 260 µM
